T1: DABCYL-TPLKSPPPSPR-EDANS (Calpain Substrate III; Calbiochem)
T1 chain: TPLKSPPPSPR

T2: Consensus peptide P4'P (EVKALEEP) (not fully specified)
T2 chain: EVKALEEP

T3: Consensus peptide P3GP1'V (EGKAVLEA) (not fully specified)
T3 chain: EGKAVLEA

T4: Consensus peptide P4'A (EVKALEEA) (not fully specified)
T4 chain: EVKALEEA

T5: Consensus peptide P2R (EVRALEEA) (not fully specified)
T5 chain: EVRALEEA

T6: PR1478 peptide
T6 chain: WRQNRGGGCINH

T7: PR1476 peptide
T7 chain: RQNRGGGCINH


Tests used:
[1] = target: T1, DABCYL-TPLKSPPPSPR-EDANS (Calpain …)
[2] = target: T2, Consensus peptide P4'P (EVKALEEP)
[3] = target: T3, Consensus peptide P3GP1'V (EGKAVLEA)
[4] = target: T4, Consensus peptide P4'A (EVKALEEA)
[5] = target: T5, Consensus peptide P2R (EVRALEEA)
PR1478 peptide = target: T6, PR1478 peptide
PR1476 peptide = target: T7, PR1476 peptide

Protein	hydrolysis of FRET substrate (EDANS signal) [1]	hydrolysis of consensus FRET peptide [2]	hydrolysis of consensus FRET peptide [3]	hydrolysis of consensus FRET peptide [4]	catalytic efficiency (kcat/Km) [5] [vs. 7 M^-1s^-1]	hydrolysis of consensus FRET peptide [5]	substrate turnover (kcat) [5]	proteolytic cleavage of FRET peptide substrate (EDANS fluorescence) (PR1478 peptide)	substrate quality compared with PR1476 (PR1478 peptide)	catalytic efficiency (kcat/Km) (PR1476 peptide) [vs. 7 M^-1s^-1]	proteolytic cleavage of FRET peptide substrate (EDANS fluorescence) (PR1476 peptide)
CAPN5-G267S protease core domain (protein) MFSCVKPYEDQNYSALRRDCRRRKVLFEDPLFPATDDSLYYKGTPGPAVRWKRPKGICEDPRLFVDGISSHDLHQGQVGNCWFVAACSSLASRESLWQKVIPDWKEQEWDPEKPNAYAGIFHFHFWRFGEWVDVVIDDRLPTVNNQLIYCHSNSRNEFWCALVEKAYAKLAGCYQALDGGNTADALVDFTGGVSEPIDLTEGDFANDETKRNQLFERMLKVHSRGGLISASIKAVTAADMEARLACGLVKGHAYAVTDVRKVRLGHSLLAFFKSEKLDMIRLRNPWGEREWNGPWSDTSEEWQKVSKSEREKMGVTVQDDGEFWMTFEDVCRYFTDIIKCRVI	DABCYL-TPLKSPPPSPR (SEQ ID NO:3)-EDANS (Calpain Substrate III; Calbiochem; 40 µM) hydrolysis by 50 nM CAPN5-G267S protease core domain	These substrates were hydrolyzed by 1.6 µM CAPN5-PC p.G267S in the presence of 10 mM Ca^2+	These substrates were hydrolyzed by 1.6 µM CAPN5-PC p.G267S in the presence of 10 mM Ca^2+	These substrates were hydrolyzed by 1.6 µM CAPN5-PC p.G267S in the presence of 10 mM Ca^2+	11	These substrates were hydrolyzed by 1.6 µM CAPN5-PC p.G267S in the presence of 10 mM Ca^2+	The observed substrate turnover (kcat) of these consensus peptides indicated that peptide P2R is preferred by CAPN5-PC and suggests a preference for arginine in the P2 subsite				
Calpain-5 protease core domain (CAPN5-PC) (protein) MFSCVKPYEDQNYSALRRDCRRRKVLFEDPLFPATDDSLYYKGTPGPAVRWKRPKGICEDPRLFVDGISSHDLHQGQVGNCWFVAACSSLASRESLWQKVIPDWKEQEWDPEKPNAYAGIFHFHFWRFGEWVDVVIDDRLPTVNNQLIYCHSNSRNEFWCALVEKAYAKLAGCYQALDGGNTADALVDFTGGVSEPIDLTEGDFANDETKRNQLFERMLKVHSRGGLISASIKAVTAADMEARLACGLVKGHAYAVTDVRKVRLGHGLLAFFKSEKLDMIRLRNPWGEREWNGPWSDTSEEWQKVSKSEREKMGVTVQDDGEFWMTFEDVCRYFTDIIKCRVI								PR1478 also displays activity in a CAPN5 dose-dependent manner	a tryptophan was added to the N-terminus of PR1476, which makes PR1478 a better substrate for CAPN5	11	PR1476 displays activity in a CAPN5 dose-dependent manner

— US20220364142
